Results as given in patent publication US20040023332A1 (GENEXINE, published 2004).

B1: human IL-12p35 subunit, wild type (ligand, UniProt P29459 23-219, looked up)
chain: RNLPVATPDPGMFPCLHHSQNLLRAVSNMLQKARQTLEFYPCTSEEIDHEDITKDKTSTVEACLPLELTKNESCLNSRETSFITNGSCLASRKTSFMMALCLSSIYEDLKMYQVEFKTMNAKLLMDPKRQIFLDQNMLAVIDELMQALNFNSETVPQKSSLEEPDFYKTKIKLCILLHAFRIRAVTIDRVMSYLNAS
notes: also called hp35
B2: human IL-12p40 mutant hp40-N222Q (ligand)
chain: IWELKKDVYVVELDWYPDAPGEMVVLTCDTPEEDGITWTLDQSSEVLGSGKTLTIQVKEFGDAGQYTCHKGGEVLSHSLLLLHKKEDGIWSTDILKDQKEPKNKTFLRCEAKNYSGRFTCWWLTTISTDLTFSVKSSRGSSDPQGVTCGAATLSAERVRGDNKEYEYSVECQEDSACPAAEESLPIEVMVDAVHKLKYEQYTSSFFIRDIIKPDPPKNLQLKPLKNSRQVEVSWEYPDTWSTPHSYFSLTFCVQVQGKSKREKKDRVFTDKTSATVICRKNASISVRAQDRYYSSSWSEWASVPCS
notes: NO; 4 already carries N222Q; also called Gln-222

molecular target: B2; test: co-transfection of hp40-N222Q plasmid with varied amounts of hp35 DNA, IL-12p70 ELISA

| binding result | Molecule |
| --- | --- |
| binds | B1 |

molecular target: human IL-12p40 subunit, wild type (human) (UniProt P29460); test: IL-12p70 ELISA of lysates of co-transfected COS-7 cells

| IL-12p70 heterodimer in cell lysates (% of wild type) [%] | Molecule |
| --- | --- |
| 90 | human IL-12p35 mutant hp35-N141Q (from UniProt P29459 23-219) (ligand) |
| 88 | human IL-12p35 mutant hp35-N251Q (from UniProt P29459 23-219) (ligand) |
| 72 | human IL-12p35 mutant hp35-N127Q (from UniProt P29459 23-219) (ligand) |
| 71 | human IL-12p35 double mutant hp35-N127,141Q (from UniProt P29459 23-219) (ligand) |
| 100 | B1 |

molecular target: B1; test: as above
Procedure: 1.5 μg/Ml of tunicamycin was added in some experiments. After incubation for another 24 hours, supernatants and cell pellets were harvested by centrifugation. Supernatants were used for the SEAP assay and cell pellets were resuspended in 200 μl of lysis solution (Promega). The levels of IL-12p70 and IL-12p40 in both supernatants and cell lysates were measured by ELISA (R&D system). For immunoblotting, 10% or 12% sodium dodecyl-sulfate-polyacrylamide electrophoresis (SDS-PAGE) was conducted with supernatants and cell lysates. The proteins separated from the above experiment was electrotransfered to nylon membrane (Amersham). The proteins absorbed to the membrane were obtained by using biotin-labeled human IL-12 antibody (Amersham), horseradish peroxidase (HRP)-labeled streptavidin (PharMingen) and ECL kit (Amersham). The levels of IL-12p70 or IL-12p40 expression were measured by ELISA and presented relatively to the level of wild type, which is arbitrarily set at 100%.
^aTotal 20 μg of each DNA contruct was used for transfection into COS-7 cells by electroporation. For simultaneous transfection of two DNA constructs, 10 μg of each DNA construct was used. ^bThe levels of human and mouse IL-12p70 or IL-12p40 expression were measured by ELISA and presented relative to the wild-type, which is arbitrarily set at 100%. ^cThe equal amount of p70 in each mutant supernatant was used in the IFN-γ induction assay. The levels of induced IFN-γ were measured by ELISA and presented relative to the level of wild type, which is arbitrarily set at 100%. ^dIL-12p40 indicates the monomeric and homodimeric p40 form of IL-12p40, but not the p40 part of IL-12p70. ^eIL-12p70 indicates the heterodimer which consists of IL-12p35 and IL-12p40. ^fThe plasmid backbone used for independent expression of hIL-12p40, hIL-12p35, and their derivatives is pCIN-neo and is descibed as mock. ^g<1 indicates values below the detectable range of ELISA assay. ^hWhen the equal amount of p70 in each indicated mutant (hp40-N135Q) and wild-type supernatant is used in IFN-γ induction assay, the insufficient hp40 in each mutant supernatant compared to wild-type supernatantwas reconstituted with hp40 supernatant obtained after tranfection with hp40 only ⁱNumbers in ( ) mean each amount (μg) of cotransfected plasmid, pCIN-hp40-N222Q and pCIN-hp35.

| IL-12p70 heterodimer in cell lysates (% of wild type) [%] | Molecule |
| --- | --- |
| 99 | human IL-12p40 mutant hp40-N135Q (from UniProt P29460 23-328) (ligand) |
| 97 | human IL-12p40 mutant hp40-N125Q (from UniProt P29460 23-328) (ligand) |
| 89 | human IL-12p40 mutant hp40-N222L (ligand, NO; 3 already carries N222L; also called Leu-222) IWELKKDVYVVELDWYPDAPGEMVVLTCDTPEEDGITWTLDQSSEVLGSGKTLTIQVKEFGDAGQYTCHKGGEVLSHSLLLLHKKEDGIWSTDILKDQKEPKNKTFLRCEAKNYSGRFTCWWLTTISTDLTFSVKSSRGSSDPQGVTCGAATLSAERVRGDNKEYEYSVECQEDSACPAAEESLPIEVMVDAVHKLKYELYTSSFFIRDIIKPDPPKNLQLKPLKNSRQVEVSWEYPDTWSTPHSYFSLTFCVQVQGKSKREKKDRVFTDKTSATVICRKNASISVRAQDRYYSSSWSEWASVPCS |
| 90 | B2 |
